Measured values from paper PMC5862942, “JMJD5 is a human arginyl C-3 hydroxylase” (Nature Communications, 2018).
Where no end group is shown, it is not given here.

Target: N-terminally truncated JMJD5 (Jumonji-C domain-containing protein 5), wild type (human, UniProt Q8N371 183-416)
Experiment: cell-based or functional assay

Chain of N-terminally truncated JMJD5 (Jumonji-C domain-containing protein 5), wild type (Q8N371 other isoform, or with tags, fused parts or gaps): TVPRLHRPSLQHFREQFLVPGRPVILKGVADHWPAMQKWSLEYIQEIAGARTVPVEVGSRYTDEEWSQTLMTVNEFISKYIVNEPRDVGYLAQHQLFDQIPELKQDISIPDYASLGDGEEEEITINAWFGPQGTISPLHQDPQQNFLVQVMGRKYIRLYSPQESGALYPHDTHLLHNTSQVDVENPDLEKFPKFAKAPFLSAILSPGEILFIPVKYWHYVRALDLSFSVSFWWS

apparent Km of the RPS6 129-144 peptide in JMJD5-catalysed Arg137 hydroxylation (MALDI-MS-based assay, 37 °C): 60.4 µM
B1: 40S ribosomal protein S6 (RPS6) peptide, residues 129-144 (peptide)
peptide: VPRRLGPKRASRIRKL-NH2
